The target in the assay is T1, GSDMD (Mus musculus, UniProt Q9D8T2).
T1 chain: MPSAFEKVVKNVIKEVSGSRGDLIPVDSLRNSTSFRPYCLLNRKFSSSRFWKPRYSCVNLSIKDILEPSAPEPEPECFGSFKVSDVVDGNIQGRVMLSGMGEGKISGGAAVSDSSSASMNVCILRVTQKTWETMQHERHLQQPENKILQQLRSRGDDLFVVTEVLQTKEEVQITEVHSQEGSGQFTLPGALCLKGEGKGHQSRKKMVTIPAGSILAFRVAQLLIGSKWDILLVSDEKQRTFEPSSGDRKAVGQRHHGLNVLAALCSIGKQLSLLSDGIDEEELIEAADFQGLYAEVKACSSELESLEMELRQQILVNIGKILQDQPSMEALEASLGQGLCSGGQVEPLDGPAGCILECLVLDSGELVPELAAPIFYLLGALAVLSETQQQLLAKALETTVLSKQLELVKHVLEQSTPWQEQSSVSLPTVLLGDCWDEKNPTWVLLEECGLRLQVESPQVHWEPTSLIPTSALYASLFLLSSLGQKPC
The assay is described as follows: SPR.

B1: CIRP (protein)
chain: MASDEGKLFVGGLSFDTNEQALEQVFSKYGQISEVVVVKDRETQRSRGFGFVTFENIDDAKDAMMAMNGKSVDGRQIRVDQAGKSSDNRSRGYRGGSAGGRGFFRGGRSRGRGFSRGGGDRGYGGGRFESRSGGYGGSRDYYASRSQGGSYGYRSSGGSYRDSYDSYATHNE
By Kd is commonly meant the free concentration of one partner at which half of the binding sites on the other are occupied at equilibrium, for simple one-to-one binding. The low end stands for tighter binding, the high end for weaker binding. B1 registered a Kd of 487 nM.
